Assay results as given in patent publication US20150344570A1 (published 2015).

T1: FcγRIIa H (human, UniProt P12318 34-217)
T1 construct: extracellular domain; also called FcgRIIa H; FcγRIIa type H
T1 sequence (looked up): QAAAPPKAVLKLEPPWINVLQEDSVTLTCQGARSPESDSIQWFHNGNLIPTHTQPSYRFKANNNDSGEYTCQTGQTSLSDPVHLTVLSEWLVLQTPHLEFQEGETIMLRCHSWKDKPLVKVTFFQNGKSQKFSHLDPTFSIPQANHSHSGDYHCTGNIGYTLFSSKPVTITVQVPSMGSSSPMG

T2: FcγRIIb (human, UniProt P31994 43-217)
T2 construct: extracellular domain; also called FcgRIIb; 2b
T2 sequence (looked up): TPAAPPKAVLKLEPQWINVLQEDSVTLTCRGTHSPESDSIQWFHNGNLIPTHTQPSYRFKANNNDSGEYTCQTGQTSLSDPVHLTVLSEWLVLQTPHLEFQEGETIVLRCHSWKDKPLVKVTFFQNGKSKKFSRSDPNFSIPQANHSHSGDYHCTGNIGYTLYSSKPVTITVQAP

T3: FcγRIIb extracellular domain with C-terminal His tag (human, UniProt P31994 43-217)
T3 construct: extracellular domain; also called 2b; FcgRIIb; not shown: His tag at the C terminus
T3 sequence (looked up): T2 sequence (looked up)

B1: GpH7-A5/GpH7-B3 variant L234_10E/GpL16-k0 (antibody, human IgG1, kappa)
heavy 1: not shown
heavy 2: not shown
light: DIVMTQSPLSLPVTPGEPASISCQASESLVHSNRNTYLHWYLQKPGQSPQLLIYKVSNRFSGVPDRFSGSGSGTDFTLKISRVEAEDVGVYYCSQNTHVPPTFGQGTKVEIERTVAAPSVFIFPPSDEQLKSGTASVVCLLNNFYPREAKVQWKVDNALQSGNSQESVTEQDSKDSTYSLSSTLTLSKADYEKHKVYACEVTHQGLSSPVTKSFNRGEC
notes: Heterodimerized antibody, alteration in one H chain only; also called He Ab L234E
B2: GpH7-A5/GpH7-B3 variant G237_02A/GpL16-k0 (antibody, human IgG1, kappa)
heavy 1: not shown
heavy 2: not shown
light: B1 light
notes: IgG1, anti-glypican-3; also called He Ab
B3: GpH7-A5/GpH7-B3 variant G237_16H/GpL16-k0 (antibody, human IgG1, kappa)
heavy 1: not shown
heavy 2: not shown
light: B1 light
notes: as for B2
B4: GpH7-A5/GpH7-B3 variant G236_09D/GpL16-k0 (antibody, human IgG1, kappa)
heavy 1: not shown
heavy 2: not shown
light: B1 light
notes: as for B2
B5: GpH7-A5/GpH7-B3 variant G237_09D/GpL16-k0 (antibody, human IgG1, kappa)
heavy 1: not shown
heavy 2: not shown
light: B1 light
notes: as for B2
B6: GpH7-A5/GpH7-B3 variant L235_20W/GpL16-k0 (antibody, human IgG1, kappa)
heavy 1: not shown
heavy 2: not shown
light: B1 light
notes: Heterodimerized antibody, alteration in one H chain only; also called He Ab L235W
B7: GpH7-A5/GpH7-B3 variant G237_18N/GpL16-k0 (antibody, human IgG1, kappa)
heavy 1: not shown
heavy 2: not shown
light: B1 light
notes: as for B2
B8: GpH7-A5/GpH7-B3 variant L235_09D/GpL16-k0 (antibody, human IgG1, kappa)
heavy 1: not shown
heavy 2: not shown
light: B1 light
notes: Heterodimerized antibody, alteration in one H chain only; also called He Ab L235D
B9: GpH7-A5/GpH7-B3 variant G237_20W/GpL16-k0 (antibody, human IgG1, kappa)
heavy 1: not shown
heavy 2: not shown
light: B1 light
notes: as for B2
B10: GpH7-A5/GpH7-B3 variant L235_15Y/GpL16-k0 (antibody, human IgG1, kappa)
heavy 1: not shown
heavy 2: not shown
light: B1 light
notes: as for B2
B11: GpH7-A5/GpH7-B3 variant G237_08L/GpL16-k0 (antibody, human IgG1, kappa)
heavy 1: not shown
heavy 2: not shown
light: B1 light
notes: as for B2
B12: GpH7-A5/GpH7-B3 variant L235_04F/GpL16-k0 (antibody, human IgG1, kappa)
heavy 1: not shown
heavy 2: not shown
light: B1 light
notes: as for B2
B13: GpH7-A5/GpH7-B3 variant G236_11K/GpL16-k0 (antibody, human IgG1, kappa)
heavy 1: not shown
heavy 2: not shown
light: B1 light
notes: as for B2
B14: GpH7-A5/GpH7-B3 variant G237_13S/GpL16-k0 (antibody, human IgG1, kappa)
heavy 1: not shown
heavy 2: not shown
light: B1 light
notes: as for B2
B15: GpH7-A5/GpH7-B3 variant G236_10E/GpL16-k0 (antibody, human IgG1, kappa)
heavy 1: not shown
heavy 2: not shown
light: B1 light
notes: as for B2
B16: GpH7-A5/GpH7-B3 variant L235_20W/GpL16-k0 (antibody, human IgG1, kappa)
heavy 1: not shown
heavy 2: not shown
light: B1 light
notes: as for B2

Assays:
[1] = biological target: T1, FcγRIIa H; assay: SPR (Biacore); He/Con_2aH divided by He/Con_2b (FcγRIIa H over FcγRIIb)
[2] = biological target: T1, FcγRIIa H; assay: SPR (Biacore), antibody captured, FcγR analyte; binding relative to GpH7-A5/GpH7-B3/GpL16-k0 = 100
[3] = biological target: T2, FcγRIIb; assay: as above
[4] = biological target: T4, FcγRIIIa extracellular domain with C-terminal His tag (human, UniProt P08637 17-208); assay: SPR (Biacore), relative to GpH7-A5/GpH7-B3/GpL16-k0 = 100
T4 construct: extracellular domain; also called 3a; FcgRIIIa; not shown: His tag at the C terminus
T4 sequence (P08637 17-208): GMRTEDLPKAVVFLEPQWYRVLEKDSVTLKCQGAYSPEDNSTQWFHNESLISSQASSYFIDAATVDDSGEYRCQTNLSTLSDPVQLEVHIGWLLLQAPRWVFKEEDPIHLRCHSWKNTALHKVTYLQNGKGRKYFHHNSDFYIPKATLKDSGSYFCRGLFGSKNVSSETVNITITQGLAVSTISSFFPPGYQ

[5] = biological target: T3, FcγRIIb extracellular domain with …; assay: as above
[6] = biological target: T4, FcγRIIIa extracellular domain with …; assay: SPR (Biacore); ratio of He/Con_3a (FcγRIIIa) to He/Con_2b (FcγRIIb)

| He_2aH/2b (IIaH/IIb) [1] | He/Con_2aH [2] | He/Con_2b [3] | He/Con_3a [4] | He/Con_2b [5] | He_3a/2b (IIIa/IIb) [6] | Binder |
| --- | --- | --- | --- | --- | --- | --- |
| 0.75 ratio | 88.3 % of control | 118 % of control | – | – | – | B1 |
| – | – | – | 48.8 % (control = 100) | 124 % (control = 100) | 0.39 | B2 |
| – | – | – | 17.2 % (control = 100) | 55.2 % (control = 100) | 0.31 | B3 |
| – | – | – | 71.2 % (control = 100) | 167 % (control = 100) | 0.43 | B4 |
| – | – | – | 17.7 % (control = 100) | 223 % (control = 100) | 0.08 | B5 |
| 0.8 ratio | 118 % of control | 147 % of control | – | – | – | B6 |
| – | – | – | 20.3 % (control = 100) | 180 % (control = 100) | 0.11 | B7 |
| 0.71 ratio | 75.8 % of control | 106 % of control | – | – | – | B8 |
| – | – | – | 19.7 % (control = 100) | 193 % (control = 100) | 0.1 | B9 |
| – | – | – | 80.6 % (control = 100) | 149 % (control = 100) | 0.54 | B10 |
| – | – | – | 24.9 % (control = 100) | 148 % (control = 100) | 0.17 | B11 |
| – | – | – | 79.1 % (control = 100) | 118 % (control = 100) | 0.67 | B12 |
| – | – | – | 18.6 % (control = 100) | 49.8 % (control = 100) | 0.37 | B13 |
| – | – | – | 38.4 % (control = 100) | 111 % (control = 100) | 0.35 | B14 |
| – | – | – | 70.7 % (control = 100) | 110 % (control = 100) | 0.64 | B15 |
| – | – | – | 76.4 % (control = 100) | 147 % (control = 100) | 0.52 | B16 |
